Data on 3 molecules can be found in PMC4687139, “The secreted L-arabinose isomerase displays anti-hyperglycemic effects in mice” (Microbial Cell Factories, 2015).

Series [1] concerns the target T1, secreted L-arabinose isomerase (L-AI) from L. sakei 23 K, purified from L. lactis MRS40 (Latilactobacillus sakei, UniProt Q38UH2).
T1 construct: gene araA; araA fused behind SPUsp45 signal peptide and LEISSTCDA propeptide (pSEC:LEISS:araA); secreted by Lactococcus lactis NZ9000 htrA clpP (MRS40), purified from supernatant; about 56 kDa monomer, homotetramer
T1 sequence (Q38UH2 2-474 limits assumed): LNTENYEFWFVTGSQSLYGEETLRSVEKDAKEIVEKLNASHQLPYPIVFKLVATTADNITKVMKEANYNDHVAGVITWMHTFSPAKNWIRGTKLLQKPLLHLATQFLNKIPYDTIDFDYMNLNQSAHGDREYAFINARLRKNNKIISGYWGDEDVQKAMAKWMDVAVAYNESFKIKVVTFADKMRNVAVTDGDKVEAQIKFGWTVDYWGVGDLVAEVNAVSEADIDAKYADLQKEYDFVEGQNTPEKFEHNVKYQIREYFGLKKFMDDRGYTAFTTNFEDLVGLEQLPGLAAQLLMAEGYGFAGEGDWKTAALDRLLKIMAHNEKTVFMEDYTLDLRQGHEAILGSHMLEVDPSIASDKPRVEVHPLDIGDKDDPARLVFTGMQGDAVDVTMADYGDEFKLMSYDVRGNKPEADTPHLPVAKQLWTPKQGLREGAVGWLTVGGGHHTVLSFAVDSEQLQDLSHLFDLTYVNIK
Kind of series: bioconversion to D-tagatose, cysteine carbazole assay. The class given is biochemical. Conditions: 10 g/l D-galactose, 0.3 mg/ml enzyme, pH 5.0, 6.0 and 7.0.

Series [2] concerns the molecule itself. Kind of series: SEC; gel filtration chromatography of the purified L-AI preparations, calibrated with protein markers of 669, 440, 232, 140 and 66 kDa; read together with SDS-PAGE (monomer about 56 kDa). A general note: SEC sorts molecules by how far they enter the pores of the column.

`OC[C@H]1OC(O)[C@H](O)[C@@H](O)[C@H]1O` (stereo partly drawn) [D-galactose]: in series [1], the “bioconversion to D-tagatose, cysteine carbazole assay” value is on record as “The purified secreted L-AI displayed a high efficiency to isomerize the D-galactose into D-tagatose”.

B1: secreted L-arabinose isomerase (L-AI) from Lactobacillus sakei 23 K, secreted by L. lactis MRS40 (pSEC:LEISS:araA) (enzyme)
chain: LEISSTCDAALNTENYEFWFVTGSQSLYGEETLRSVEKDAKEIVEKLNASHQLPYPIVFKLVATTADNITKVMKEANYNDHVAGVITWMHTFSPAKNWIRGTKLLQKPLLHLATQFLNKIPYDTIDFDYMNLNQSAHGDREYAFINARLRKNNKIISGYWGDEDVQKAMAKWMDVAVAYNESFKIKVVTFADKMRNVAVTDGDKVEAQIKFGWTVDYWGVGDLVAEVNAVSEADIDAKYADLQKEYDFVEGQNTPEKFEHNVKYQIREYFGLKKFMDDRGYTAFTTNFEDLVGLEQLPGLAAQLLMAEGYGFAGEGDWKTAALDRLLKIMAHNEKTVFMEDYTLDLRQGHEAILGSHMLEVDPSIASDKPRVEVHPLDIGDKDDPARLVFTGMQGDAVDVTMADYGDEFKLMSYDVRGNKPEADTPHLPVAKQLWTPKQGLREGAVGWLTVGGGHHTVLSFAVDSEQLQDLSHLFDLTYVNIK
By stoichiometry N is commonly meant the number of molecules, sites or subunits per partner or assembly. Take B1: the “stoichiometry N” value in series [2] was found to be 4.

B2: L-arabinose isomerase (L-AI) from Lactobacillus sakei 23 K, produced intracellularly in E. coli (enzyme, UniProt Q38UH2 1-474, looked up)
chain: MLNTENYEFWFVTGSQSLYGEETLRSVEKDAKEIVEKLNASHQLPYPIVFKLVATTADNITKVMKEANYNDHVAGVITWMHTFSPAKNWIRGTKLLQKPLLHLATQFLNKIPYDTIDFDYMNLNQSAHGDREYAFINARLRKNNKIISGYWGDEDVQKAMAKWMDVAVAYNESFKIKVVTFADKMRNVAVTDGDKVEAQIKFGWTVDYWGVGDLVAEVNAVSEADIDAKYADLQKEYDFVEGQNTPEKFEHNVKYQIREYFGLKKFMDDRGYTAFTTNFEDLVGLEQLPGLAAQLLMAEGYGFAGEGDWKTAALDRLLKIMAHNEKTVFMEDYTLDLRQGHEAILGSHMLEVDPSIASDKPRVEVHPLDIGDKDDPARLVFTGMQGDAVDVTMADYGDEFKLMSYDVRGNKPEADTPHLPVAKQLWTPKQGLREGAVGWLTVGGGHHTVLSFAVDSEQLQDLSHLFDLTYVNIK
notes: L-arabinose isomerase (araA gene product) of Lactobacillus sakei 23 K; apparent molecular weight of the monomer about 56 kDa on SDS-PAGE; also called intracellular form; purified L-AI from E. coli; source: E. coli BL21 (strain MRS36, plasmid pMR36), over-expressed and purified as previously reported [30]
As to B2, the “stoichiometry N” value in series [2] amounted to 4.
